Measurements published in publication PMC4690510, “Crystal structure of a novel two domain GH78 family α-rhamnosidase from Klebsiella oxytoca with rhamnose bound” (Proteins, 2015).

Experiments:
[1] = target: α-L-rhamnosidase from Klebsiella oxytoca (KoRha) (Klebsiella oxytoca KCTC 1686); test: dynamic light scattering; purified KoRha in solution, DynaPro-Titan instrument, 20°C; hydrodynamic radius 4.8 nm
purified protein = substrate: C[C@@H]1O[C@@H](Oc2ccc([N+](=O)[O-])cc2)[C@H](O)[C@H](O)[C@H]1O; test: purified protein; assay type: biochemical, Klebsiella oxytoca; details: 20 mM MES pH 5.0, 10% DMSO in substrate solution

Molecule: α-L-rhamnosidase from Klebsiella oxytoca (KoRha) (enzyme)
- stoichiometry N [1]: 2

B1: KoRha (Klebsiella oxytoca) (protein)
chain: MSQAIQHNSQVMMTRHPNFLRTAEALRPALSRQAHPPIAVVEAHADAAALFGWRAEPVSTLAAFYQRELSSGDSVIIDFGSHYVGYLHFLCQSAGSPPDAPAHLQLTFGETLSEVCEPFSDYQGWLSSSWLQQQDLWLDVLPAEIDLPRRYCFRYLKVEVKAVSRKFRLQFTQIEVNAVTSASGACPAATTSDPQLRAIDNVAVLTLQNCMQEVFEDGPKRDRRLWLGDLRLQALVNDVTFARHDLVRRCLYLFAGHTREDGMVSANVFVQPDVIADDTFLFDYSLFFVDVLYNYLQSAEDMATARELWPTARRQVELALTRCDASGVVRDSDDWWVFIDWQASLNKQAAAQGVLIYCLQRAIWLAERFEPELAVSYRQRLQQLKSAALDALWDPQQGFYVSGARRQVSWASQIWLVLAEVGTPQQRREIMRNLEKNPPAVAMNTPYLRHHYIAALLQCGLRDEAIAQIKAYWGAMVDYGADTFWEIFDPAHPDFSPYGSKLINSYCHAWSCTPAWFIRQYGL
notes: synthetic codon-optimised gene in pET15b, E. coli BL21(DE3); residues 11-523 modelled
- Km (purified protein): 210 ± 20 µM
- kcat (purified protein): 0.98 s⁻¹
